Changes are numbered by the printed parent chain. In names and notes the source's numbering stands.
B1: wild-type Fyn SH2 domain (hexa-histidine-tagged construct, SEQ ID NO:4) (protein)
chain: MKIEEHHHHHHSSGRENLYFQGGAAQPAAPVDSIQAEEWYFGKLGRKDAERQLLSFGNPRGTFLIRESETTKGAYSLSIRDWDDMKGDHVKHYKIRKLDNGGYYITTRAQFETLQQLVQHYSERAAGLSSRLVVPSHKGAAA
B2: T8V variant Fyn SH2 domain (designed binder)
chain: B1 chain with T71V
B3: T8I/S10A/K15L variant Fyn SH2 domain (designed binder)
chain: B1 chain with T71I, S76A, K94L

Tests used:
[1] = biological target: seven peptides (fluorescein-labeled pTyr-containing peptides of the fluorescence polarization assay); assay: fluorescence polarization in solution, SH2 domain titrated against fluorescein-labeled peptide
[2] = biological target: seven peptides (fluorescein-labeled pTyr-containing peptides of the fluorescence polarization assay); assay: fluorescence polarization in solution; average over seven peptides, reference wild-type Fyn SH2 domain

Binder	Kd [1]	average fold affinity increase (Kd[wild-type] divided by Kd[variant]) [2]
B1	10 µM	–
B2	–	1.4 fold
B3	–	86.4 fold

Reference: patent publication US20190271705A1
